# Laboratory results: patent publication US20070248613A1
# Biological target: IZN36 (HIV)
binder,measurement,value
"D5 IgG (antibody, V domains shown) VH: QVQLVQSGAEVRKPGASVKVSCKASGDTFSSYAISWVRQAPGQGLEWMGGIIPIFGTANYAQKFQGRVTITADESTSTAYMELSSLRSEDTAIYYCARDNPTLLGSDYWGKGTLVTVSS VL: DIQMTQSPSTLSASIGDRVTITCRASEGIYHWLAWYQQKPGKAPKLLIYKASSLASGAPSRFSGSGSGTDFTLTISSLQPDDFATYYCQQYSNYPLTFGGGTKLEIK",IC50 (read off the curve),0.6 nM
